Measurements from patent US12146152B2, “Systems, methods, and compositions for correction of frameshift mutations” (Massachusetts Institute of Technology, priority 2019, dated 2024).
One block for each molecule: values may come before it.

Legend:
Assay type in all cases: cell-based
PCSK9 exon 12 = assay: Indels editing in PCSK9 gene using Cas9 and blunting enzymes; conditions: HEK293T cells, Cas9 + PCSK9 exon 12 sgRNA + blunting enzyme; for percentage of +1 insertion: Cas9 and sgRNA alone 14.4%; for percentage of +1 insertion / percentage of −1 deletion: FIGS. 11A-11H; for percentage of −1 deletion: Cas9 and sgRNA alone 4.3%; for +1 insertion frequency: control 9.4%, FIGS. 12A-12B
Procedure: (§1) To test for the efficiency of inducing indels in a target gene using Cas9 and blunting enzymes, Cas9 and PCSK9 exon 12 targeting sgRNA were co-transferred into cultured mammalian cells in combination with DNA polymerase μ (POLM), EXOG, T4 DNA polymerase (T4pol), DNA polymerase λ (POLL), MGME1, RecJ exonuclease (RecJ) or Nuclease S1 (nucS). Cas9 and sgRNA alone served as the negative control. The occurrence of indels for the control and each of the combinations was measured. HEK293T cells were used.
Results for each of the combinations are presented in FIGS. 11A-11H and comparisons between the control and blunting enzymes are presented in FIGS. 12A-12B.

GYPB gene = assay: Indels editing in GYPB gene using Cas9 and blunting enzymes; conditions: cultured mammalian cells, Cas9 + GYPB sgRNA + blunting enzyme; for percentage of +1 insertion mutations: Cas9 and sgRNA alone 10.5%, FIGS. 13A-13H
Procedure: as §1, with “GYPB” for “PCSK9 exon 12”, “measured.” for “measured. HEK293T cells were used.”

TPH2 exon 9 = assay: Indels editing in TPH2 gene using Cas9 and blunting enzymes; conditions: cultured mammalian cells, Cas9 + TPH2 sgRNA + blunting enzyme; for percentage of +1 insertion mutations: Cas9 and sgRNA alone 0%, FIGS. 14A-14H
Procedure: as §1, with “TPH2” for “PCSK9 exon 12”, “POLM,” for “DNA polymerase μ (POLM),”, “polymerase,” for “DNA polymerase (T4pol),”, “measured.” for “measured. HEK293T cells were used.”

B1: RecJ: RecJ exonuclease, blunting enzyme co-transferred with Cas9 and sgRNA (protein)
chain: TVDNGISSHAGVEHARSLGIPVIVTDHHLPGDTLPAAEAIINPNLRDCNFPSKSLAGVGVAFYLMLALRTFLRDQGWFDERNIAIPNLAELLDLVALGTVADVVPLDANNRILTWQGMSRIRAGKCRPGIKALLEVANRDAQKLAASDLGFALGPRLNAAGRLDDMSVGVALLLCDNIGEARVLANELDALNQTRKEIEQGMQIEALTLCEKLERSRDTLPGGLAMYHPEWHQGVVGILASRIKERFHRPVIAFAPAGDGTLKGSGRSIQGLHMRDALERLDTLYPGMMLKFGGHAMAAGLSLEEDKFKLFQQRFGELVTEWLDPSLLQGEVVSDGPLSPAEMTMEVAQLLRDAGPWGQMFPEPLFDGHFRLLQQRLVGERHLKVMVEPVGGGPLLDGIAFNVDTALWPDNGVREVQLAYKLDINEFRGNRSLQIIIDNIWPI
- percentage of −1 deletion (PCSK9 exon 12): 5.5%

B2: MGME1: single-strand DNA specific nuclease, blunting enzyme co-transferred with Cas9 and sgRNA (protein)
chain: LQQTMTKQQVFLLERWKQRMILELGEDGFKEYTSSFHVCDHVYMKNLARDVFLQGKRFHEALESILSPQETLKERDENLLKSGYIESVQHILKDVSGVRALESAVQHETLNYIGLLDCVAEYQGKLCVIDWKTSEKPKPFIQSTFDNPLQVVAYMGAMNHDTNYSFQVQCGLIVVAYKDGSPAHPHFMDAELCSQYWIKWLLRLEEYTEKKKNQNIQKPEYSE
- percentage of −1 deletion (PCSK9 exon 12): 6.35%

B4: EXOG: single-strand DNA specific nuclease, blunting enzyme co-transferred with Cas9 and sgRNA (protein)
chain: WSRGHMAPAGNNKFSSKAMAETFYLSNIVPQDFDNNSGYWNRIEMYCRELTERFEDVWVVSGPLTLPQTRGDGKKIVSYQVIGEDNVAVPSHLYKVILARRSSVSTEPLALGAFVVPNEAIGFQPQLTEFQVSLQDLEKLSGLVFFPHLDRTSDIRNICSVDTCKLLDFQEFTLYLSTRKIEGARSVLRLEKIMENLKNAEIEPDDYFMSRYEKKLEELKAKEQSGTQIRKPS
- percentage of −1 deletion (PCSK9 exon 12): 5.05%

Results, then the molecule that gave them:

- percentage of +1 insertion (PCSK9 exon 12): 19.6%
- percentage of +1 insertion mutations (GYPB gene): 13.7%
- percentage of +1 insertion mutations (TPH2 exon 9): 12.5%
Molecule: POLM: DNA polymerase μ, DSB-end blunting enzyme co-transferred with Cas9 and sgRNA (AIYLVEPRMGRSRRAFLTGLARSKGFRVLDA)

- percentage of +1 insertion (PCSK9 exon 12): 36.75%
- +1 insertion frequency (PCSK9 exon 12): 30.3%
- percentage of −1 deletion mutations (GYPB gene; Cas9 and sgRNA alone 1.7%, FIG. 13D): 9.05%
- percentage of +1 insertion mutations (GYPB gene): 13.4%
- percentage of −1 deletion mutations (TPH2 exon 9; Cas9 and sgRNA alone 13.2%, FIG. 14D): 36.7%
B3: T4pol: T4 DNA polymerase, DSB-end blunting enzyme co-transferred with Cas9 and sgRNA (protein, UniProt P04415 1-898, looked up)
DNA-directed DNA polymerase: MKEFYISIETVGNNIVERYIDENGKERTREVEYLPTMFRHCKEESKYKDIYGKNCAPQKFPSMKDARDWMKRMEDIGLEALGMNDFKLAYISDTYGSEIVYDRKFVRVANCDIEVTGDKFPDPMKAEYEIDAITHYDSIDDRFYVFDLLNSMYGSVSKWDAKLAAKLDCEGGDEVPQEILDRVIYMPFDNERDMLMEYINLWEQKRPAIFTGWNIEGFDVPYIMNRVKMILGERSMKRFSPIGRVKSKLIQNMYGSKEIYSIDGVSILDYLDLYKKFAFTNLPSFSLESVAQHETKKGKLPYDGPINKLRETNHQRYISYNIIDVESVQAIDKIRGFIDLVLSMSYYAKMPFSGVMSPIKTWDAIIFNSLKGEHKVIPQQGSHVKQSFPGAFVFEPKPIARRYIMSFDLTSLYPSIIRQVNISPETIRGQFKVHPIHEYIAGTAPKPSDEYSCSPNGWMYDKHQEGIIPKEIAKVFFQRKDWKKKMFAEEMNAEAIKKIIMKGAGSCSTKPEVERYVKFSDDFLNELSNYTESVLNSLIEECEKAATLANTNQLNRKILINSLYGALGNIHFRYYDLRNATAITIFGQVGIQWIARKINEYLNKVCGTNDEDFIAAGDTDSVYVCVDKVIEKVGLDRFKEQNDLVEFMNQFGKKKMEPMIDVAYRELCDYMNNREHLMHMDREAISCPPLGSKGVGGFWKAKKRYALNVYDMEDKRFAEPHLKIMGMETQQSSTPKAVQEALEESIRRILQEGEESVQEYYKNFEKEYRQLDYKVIAEVKTANDIAKYDDKGWPGFKCPFHIRGVLTYRRAVSGLGVAPILDGNKVMVLPLREGNPFGDKCIAWPSGTELPKEIRSDVLSWIDHSTLFQKSFVKPLAGMCESAGMDYEEKASLDFLFG

- percentage of +1 insertion (PCSK9 exon 12): 39.55%
- +1 insertion frequency (PCSK9 exon 12): 35.0%
- percentage of +1 insertion mutations (GYPB gene): 22.1%
- percentage of +1 insertion mutations (TPH2 exon 9): 2.95%
B5: POLL: DNA polymerase λ, DSB-end blunting enzyme co-transferred with Cas9 and sgRNA (protein)
chain: CLQERRLVDVAGFSIFIPSRYLDHPQPSKAEQDASIPPGTHEALLQTALSPPPPPTRPVSPPQKAKEAPNTQAQPISDDEASDGEETQVSAADLEALISGHYPTSLEGDCEPSPAPAVLDKWVCAQPSSQKATNHNLHITEKLEVLAKAYSVQGDKWRALGYAKAINALKSFHKPVTSYQEACSIPGIGKRMAEKIIEILESGHLRKLDHISESVPVLELFSNIWGAGTKTAQMWYQQGFRSLEDIRSQASLTTQQAIGLKHYSDFLERMPREEATEIEQTVQKAAQAFNSGLLCVACGSYRRGKATCGDVDVLITHPDGRSHRGIFSRLLDSLRQEGFLTDDLVSQEENGQQQKYLGVCRLPGPGRRHRRLDIIVVPYSEFACALLYFTGSAHFNRSMRALAKTKGMSLSEHALSTAVVRNTHGCKVGPGRVLPTPTEKDVFRLLGLPYREPAERDW
